Tests used:
[1] = target: T1, soluble dimeric erythropoietin receptor (EpoRFc) (human, UniProt P19235 25-250); test: BIAcore, calculated from kass and kdiss; soluble dimeric EpoRFc
T1 construct: also called Epo-Rec-Fc; not shown: Fc part
T1 sequence (looked up): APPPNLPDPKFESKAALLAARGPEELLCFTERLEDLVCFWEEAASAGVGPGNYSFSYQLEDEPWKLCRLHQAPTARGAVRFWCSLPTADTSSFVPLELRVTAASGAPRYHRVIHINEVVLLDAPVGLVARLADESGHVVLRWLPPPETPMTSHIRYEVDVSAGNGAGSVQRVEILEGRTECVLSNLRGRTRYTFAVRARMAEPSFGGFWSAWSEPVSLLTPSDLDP
Procedure: (§1) EpoR or EpoRFc diluted in HBS buffer at 0.25–6 ug/ml was then injected for 120 s followed by buffer flow for 240 s and regeneration of the sensor chip surface with an injection of 15 ul 0.1 M phosphoric acid. BIAcore software was used for association and dissociation-phase analysis.

[2] = target: T1, soluble dimeric erythropoietin receptor …; test: BIAcore, mAb captured on rabbit anti-mouse Fc surface, EpoRFc injected at 0.25-6 ug/ml; soluble dimeric EpoRFc
Procedure: as §1

[3] = target: T2, human erythropoietin receptor on the cell surface (human, UniProt P19235 25-508); test: competition with 1 nM 125I-labeled Epo for binding to UT7-Epo cells, 5 hrs at 4 C, cell-bound radioactivity counted; blocked ligand: Epo
T2 construct: whole, on cells; also called wild type EpoR on UT7-Epo cells; cell surface erythropoietin receptors
T2 sequence (looked up): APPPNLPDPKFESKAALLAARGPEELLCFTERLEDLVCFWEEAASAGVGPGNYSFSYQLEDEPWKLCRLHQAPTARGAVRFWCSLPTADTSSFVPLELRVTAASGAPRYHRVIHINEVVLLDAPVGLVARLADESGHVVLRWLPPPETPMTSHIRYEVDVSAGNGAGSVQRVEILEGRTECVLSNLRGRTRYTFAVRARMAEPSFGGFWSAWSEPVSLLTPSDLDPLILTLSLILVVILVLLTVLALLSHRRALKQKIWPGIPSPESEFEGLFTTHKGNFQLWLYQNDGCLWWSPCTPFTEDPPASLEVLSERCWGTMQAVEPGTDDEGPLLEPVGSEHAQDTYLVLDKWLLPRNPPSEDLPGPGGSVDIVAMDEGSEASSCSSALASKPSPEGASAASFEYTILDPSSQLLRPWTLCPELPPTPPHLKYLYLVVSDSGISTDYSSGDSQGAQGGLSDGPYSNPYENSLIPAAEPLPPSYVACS
Procedure: Following 5 hrs incubation at 4° C., the cells were spun through horse serum, frozen, and the pellets clipped off and radioactivity counted. […] Hematocrit was measured following a single i.v. dose of Hz3G9 at 0.1, 0.5, 1 and 5 mg/kg into cynomolgus macaques.

Kd [1]: 0.6 nM | koff [2]: 0.0019 s⁻¹ | kon [2]: 3e+06 M⁻¹ s⁻¹ | IC50 (read off the curve) [3]: ~1 ng/mL
B1: murine monoclonal antibody 3G9 (antibody, V domains shown)
VH: QVQLQQPGAELVKSGASVKLSCKASGSTFTSYWMHWVKQRPGRGLEWIGRIDPNSGGTKDNEKFKSKATLTVDKPSSTAYMQLSSLTSEDSAVYYCARETYYDSSFAYWGQGTLVTVSA
VL: DIVMTQSQKFMSTSVGDRVSVTCKASQNVGTNVAWYQQKPGQSPKALIYSASYRYSGVPDRFTGSGSGTDFTLTISNVQSEDLAEYFCQQYNSYPLTFGAGTKLELKR
modifications: amino terminus of the heavy chain blocked with pyroglutamic acid
notes: Mouse hybridoma antibody; also called 3G9 mAb; Mab 3G9

— US6998124 (GlaxoSmithKline, dated 2006)
